{"source": "patent US20220259593A1", "about": "“CONTROL OF MAMMALIAN GENE DOSAGE USING CRISPR” (The Regents of the University of California, priority 2019, published 2022)", "data": [{"system": "K562 CRISPRi cells", "assay": "Constant region variant library pooled growth screen, K562", "assay_type": "cell-based, human", "conditions": "sgRNA constant region variants; activity relative to the original, un-modified constant region cr995", "summary_of_the_method": "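Cells were selected with puromycin for 2 days and then kept in RPMI-1640 spinner cultures, with duplicates handled separately. Targeting sequences comprised 3 sgRNAs per essential gene for 10 genes plus six non-targeting controls. Activities were normalized against pairing with the unmodified scaffold.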", "values": [{"molecule": "cr601 (nucleic acid, listed as DNA, chemistry not fully specified) guide: GTTTAAGAGCTAAGCTGGAAACAGCATAGAAAGTTTAAATAAGGCTAGTCCGTTATCAACTTGAAAAAGTGGCACCGAGTCGGTGCT", "Mean relative activity": 0.8216}, {"molecule": "cr876 (nucleic acid, listed as DNA, chemistry not fully specified) guide: GTTTAAGAGCTAAGCTGGAAACAGCATAGCAAGTTTAAATAAGGCTAGTCCGTTATCAACTTGAAAAAGTGGCACCGAGTCAGTGCT", "Mean relative activity": 0.8037}, {"molecule": "cr916 (nucleic acid, listed as DNA, chemistry not fully specified) guide: GTTTAAGAGCTAAGCTGGAAACAGCATAGCAAGTTTAAATAAGACTAGTTCGTTATCAACTTGAGAAAGTGGCACCGAGTCGGTGCT", "Mean relative activity": 0.8207}, {"molecule": "cr470 (nucleic acid, listed as DNA, chemistry not fully specified) guide: GTTTAAGAGCTAAGCTGGAAACATCATAGCAAGTTTAAATAAGGCTAGTCCGTTATCAACTTGAAAAAGTGGCACCGAGTCGGTGCT", "Mean relative activity": 0.809}, {"molecule": "cr119 (nucleic acid, listed as DNA, chemistry not fully specified) guide: GTTTAAGAGCTAAGCTGGAAACAGCATAGCAAGTTTAAATAAGGCTAGTCCGTTATCAACTTGAAAAATTGGCACCGAGTCGGTGCT", "Mean relative activity": 0.7902}, {"molecule": "cr652 (nucleic acid, listed as DNA, chemistry not fully specified) guide: GTTTAAGAGCTAAGCTGGAAACAGCATCGCAAGTTTAAATAAGGCTAGTCCGGTATCAACTTGGAAAAGTGGCACCGAGTCGGTGCT", "Mean relative activity": 0.7959}, {"molecule": "cr219 (nucleic acid, listed as DNA, chemistry not fully specified) guide: GTTTAAGAGCTAAGCTGGAAACAGCATAGCAAGTTTAAATAAGCCTAGTGCGTTATCAACTTGAGAAAGTGGCACCGAGTCGGTGCT", "Mean relative activity": 0.7779}, {"molecule": "cr931 (nucleic acid, listed as DNA, chemistry not fully specified) guide: GTTTAAGAGCTAAGCTGGAAACAGCATAGCAAGTTTAAATAAGGCTAGTCCGTTATCAACTTGAAAAAGTGGCCCTGAGTCAGGGCT", "Mean relative activity": 0.8044}, {"molecule": "cr516 (nucleic acid, listed as DNA, chemistry not fully specified) guide: GTTTAAGAGCTAAGCTGGAAACAGCATAGCAAGTTTAAATAAGCCTAGTGCGTTATCAGCTTGAAAAAGCGGCACCGAGTCGGTGCT", "Mean relative activity": 0.8009}, {"molecule": "cr104 (nucleic acid, listed as DNA, chemistry not fully specified) guide: GTTTAAGAGCTAAGCTGGAAACAGCATAGCAAGTTTAAATAAGGCTAGTCCGTTATCAACTTGAAAAAGTGGAACCGAGTCGGTGCT", "Mean relative activity": 0.8063}, {"molecule": "cr394 (nucleic acid, listed as DNA, chemistry not fully specified) guide: GTTTAAGAGCTAAGCTGGAAACAGCATAGCAAGTTTAAATAAGGCTAGTCCGTTATCAACTTGAAACAGTGGCACCGAGTCGGTGCT", "Mean relative activity": 1.055}, {"molecule": "cr362 (nucleic acid, listed as DNA, chemistry not fully specified) guide: GTTTAAGAGCTAAGCTGGAAACAGCATAGCAAGTTTAAATAAGGCTAGTCCGTTATCAACTTGAAAAAGTGGCACAGAGTCGGTGCT", "Mean relative activity": 0.8214}, {"molecule": "cr886 (nucleic acid, listed as DNA, chemistry not fully specified) guide: GTTTAAGAGCTAAGCTGGAAACAGCATAGCAAGTTTAAATAAGGCTAGTCCGTTATCAAATAGAAATATTGGCAGCGAGTCGCTGCT", "Mean relative activity": 0.7791}, {"molecule": "cr199 (nucleic acid, listed as DNA, chemistry not fully specified) guide: GTTTAAGAGCTAAGCTGGAAACAGCATAGCAAGTTTAAATAAGGCTAGTCCGTTATCAACTTGAGAAAGTGGCACCTAGTAGGTGCT", "Mean relative activity": 0.7949}, {"molecule": "cr517 (nucleic acid, listed as DNA, chemistry not fully specified) guide: GTTTAAGAGCTAAGCTGGAAACAGCATAGCAAGTTTAAATAAGGCTAGTCCGTTATCAACTTGAAAAAGTGGCACCGAGTCTGTGCT", "Mean relative activity": 0.8173}, {"molecule": "cr697 (nucleic acid, listed as DNA, chemistry not fully specified) guide: GTTTAAGAGCTAAGCTGGAAACAGCATTGCAAGTTTAAATAAGGCGAGTCCGTTATCAACTTGCAAAAGTGGCACCGAGTCGGTGCT", "Mean relative activity": 0.8183}, {"molecule": "cr585 (nucleic acid, listed as DNA, chemistry not fully specified) guide: GTTTAAGAGCTAAGCTGGAAACAGCATAGCAAGTTTAAATAAGGCTAGTCCGTTATCAACTTGAAAAAGTGGCTCCGAGTCGGAGCT", "Mean relative activity": 1.056}, {"molecule": "cr477 (nucleic acid, listed as DNA, chemistry not fully specified) guide: GTTTAAGAGCTAAGCTGGAAACAGCATAGCAAGTTTAAATAAGGCTAGTCCGTTACCAACTTGAAAAAGTGGCACCGAGTCGGTGCT", "Mean relative activity": 1.055}, {"molecule": "cr678 (nucleic acid, listed as DNA, chemistry not fully specified) guide: GTTTAAGAGCTAAGCTGGAAACAGCATAGCAAGTTTAAATAAGGCTAGTCCGTTATCAACTTGAAAAAGTGGCACCGAGTCGGTACT", "Mean relative activity": 0.8081}, {"molecule": "cr879 (nucleic acid, listed as DNA, chemistry not fully specified) guide: GTTTAAGAGCTAAGCTGGAAACAGCATAGCAAGTTTAAATAAGGCGAGTCCGTCAGCAACTTGAAAAAGTGGCACCGAGTCGGTGCT", "Mean relative activity": 0.798}, {"molecule": "cr484 (nucleic acid, listed as DNA, chemistry not fully specified) guide: GTTTAAGAGCTAAGCTGGAAACAGCATAGCAAGTTTAAATAAGGCTAGTCCGTTATCAACTTGAAAAAGTGCCACCAAGTTGGTGGT", "Mean relative activity": 0.7978}, {"molecule": "cr506 (nucleic acid, listed as DNA, chemistry not fully specified) guide: GTTTAAGAGCTAAGCTGGAAACAGCATAGCAAGTTTAAATAAGCCTAGTGCGTTATCAACTTGAAAAAGTGGGACCGAGTCGGTCCT", "Mean relative activity": 0.8078}, {"molecule": "cr818 (nucleic acid, listed as DNA, chemistry not fully specified) guide: GTTTAAGAGCTAAGCTGGAAACAGCATAGGAAGTTTAAATAAGGCTAGTCCGTTATCAACTTGAAAAAGTGGCACCGAGTCGGTGCT", "Mean relative activity": 0.7972}, {"molecule": "cr805 (nucleic acid, listed as DNA, chemistry not fully specified) guide: GTTTAAGAGCTAAGCTGGAAACAGCATAGCAAGTTTAAATAGGGCTAGTCCGTTATCAACTTGATAAAGTGGCACCGAGTCGGTGCT", "Mean relative activity": 0.7927}, {"molecule": "cr740 (nucleic acid, listed as DNA, chemistry not fully specified) guide: GTTTAAGAGCTAAGCTGGAAACAGCATAGCAAGTTTAAATAAGGCTAGTCCGTTATCAACTTGAAAAAGTGCCAGCGAGTCGCTGGT", "Mean relative activity": 0.8153}, {"molecule": "cr215 (nucleic acid, listed as DNA, chemistry not fully specified) guide: GTTTAAGAGCTAAGCTGGAAACAGCATAGCAAGTTTAAATAAGGCTAGTCCGTTATCAACTTGAAAAAGTAGCACCGAGTCGGTGCT", "Mean relative activity": 0.8059}, {"molecule": "cr911 (nucleic acid, listed as DNA, chemistry not fully specified) guide: GTTTAAGAGCTAAGCTGGAAACAGCATAGCAAGTTTAAATAAGGCACGTCCGTTATCAACTTGAAAAAGTGGCACCGAATCGGTGCT", "Mean relative activity": 0.8101}, {"molecule": "cr621 (nucleic acid, listed as DNA, chemistry not fully specified) guide: GTTTAAGAGCTAAGCTGGAAACAGCATAGCAAGTTTAAATAAGACTAGTTCGTTATCAACGTGAAAACGTGGCACCAAGTTGGTGCT", "Mean relative activity": 0.818}, {"molecule": "cr391 (nucleic acid, listed as DNA, chemistry not fully specified) guide: GTTTAAGAGCTAAGCTGGAAACAGCATAGCAAGTTTAAATAAGCCTAGTGCGTTATCAACTTGAAAAAGTGGCAACGAGTCGTTGCT", "Mean relative activity": 0.8216}, {"molecule": "cr905 (nucleic acid, listed as DNA, chemistry not fully specified) guide: GTTTAAGAGCTAAGCTGGAAACAGCATAGCAAGTTTAAATAAGGCTAGTCCGTTATCAACTTGAAAAAGTGATACCAAGTTGGTATT", "Mean relative activity": 0.8019}, {"molecule": "cr733 (nucleic acid, listed as DNA, chemistry not fully specified) guide: GTTTAAGAGCTAAGCTGGAAACAGCATAGCAAGTTTAAATAAGGCTAGTCCGTTATCAACTTGAAAAAGTGGCAAAGAGTCTTTGCT", "Mean relative activity": 0.807}]}]}
